{"source": "paper PMC3179271", "key": {"[1]": {"molecular_target": "FLAG-V5-Blow (Drosophila)", "experiment": "co-IP"}, "[2]": {"molecular_target": "FLAG-V5-WASP (Drosophila)", "experiment": "co-IP"}}}
{"substance": "FLAG-Sltr (natural protein)", "values": [{"measurement": "Kd", "setting": "[1]", "result": 48.1, "unit": "nM"}, {"measurement": "Kd", "setting": "[2]", "result": 6.7, "unit": "nM"}]}
